Experiments:
acetylated Smc3(K160C) = target: T1, acetylated Smc3(K160C) (S. cerevisiae, UniProt P47037 1-1230, K160C, acetylated, residues not given); experiment: cross-linking
T1 sequence (looked up): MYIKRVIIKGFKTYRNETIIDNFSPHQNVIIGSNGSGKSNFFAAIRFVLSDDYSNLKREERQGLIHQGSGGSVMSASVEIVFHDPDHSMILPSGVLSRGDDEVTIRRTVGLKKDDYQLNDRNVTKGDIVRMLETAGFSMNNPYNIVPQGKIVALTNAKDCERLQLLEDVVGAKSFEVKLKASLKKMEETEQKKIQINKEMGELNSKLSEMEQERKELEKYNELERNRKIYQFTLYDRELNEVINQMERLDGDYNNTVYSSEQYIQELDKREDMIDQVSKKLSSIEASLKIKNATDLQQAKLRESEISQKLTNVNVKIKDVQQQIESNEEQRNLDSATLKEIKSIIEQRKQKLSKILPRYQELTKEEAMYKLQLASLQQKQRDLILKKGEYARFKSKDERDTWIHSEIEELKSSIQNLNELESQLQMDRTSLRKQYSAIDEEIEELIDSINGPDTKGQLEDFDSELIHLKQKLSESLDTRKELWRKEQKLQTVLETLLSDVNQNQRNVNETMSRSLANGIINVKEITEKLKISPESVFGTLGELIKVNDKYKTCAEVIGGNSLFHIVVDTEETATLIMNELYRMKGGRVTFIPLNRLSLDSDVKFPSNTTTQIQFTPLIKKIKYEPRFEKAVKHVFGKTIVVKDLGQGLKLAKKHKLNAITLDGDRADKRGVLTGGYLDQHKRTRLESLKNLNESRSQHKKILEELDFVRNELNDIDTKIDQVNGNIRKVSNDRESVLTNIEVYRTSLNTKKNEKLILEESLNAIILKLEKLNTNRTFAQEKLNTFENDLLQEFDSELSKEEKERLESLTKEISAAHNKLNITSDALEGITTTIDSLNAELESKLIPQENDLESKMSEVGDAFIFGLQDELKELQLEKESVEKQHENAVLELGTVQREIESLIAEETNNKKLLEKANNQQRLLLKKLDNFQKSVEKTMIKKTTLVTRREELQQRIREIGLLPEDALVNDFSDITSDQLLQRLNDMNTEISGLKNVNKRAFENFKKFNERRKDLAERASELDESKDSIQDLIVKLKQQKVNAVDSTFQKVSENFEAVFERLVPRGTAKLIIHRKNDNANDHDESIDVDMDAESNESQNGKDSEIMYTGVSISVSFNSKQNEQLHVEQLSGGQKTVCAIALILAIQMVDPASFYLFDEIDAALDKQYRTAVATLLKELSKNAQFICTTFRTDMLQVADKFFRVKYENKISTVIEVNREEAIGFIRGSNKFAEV

Smc3(K160C) = target: T2, Smc3(K160C) (S. cerevisiae, UniProt P47037 1-1230, K160C); experiment: cross-linking
T2 sequence (looked up): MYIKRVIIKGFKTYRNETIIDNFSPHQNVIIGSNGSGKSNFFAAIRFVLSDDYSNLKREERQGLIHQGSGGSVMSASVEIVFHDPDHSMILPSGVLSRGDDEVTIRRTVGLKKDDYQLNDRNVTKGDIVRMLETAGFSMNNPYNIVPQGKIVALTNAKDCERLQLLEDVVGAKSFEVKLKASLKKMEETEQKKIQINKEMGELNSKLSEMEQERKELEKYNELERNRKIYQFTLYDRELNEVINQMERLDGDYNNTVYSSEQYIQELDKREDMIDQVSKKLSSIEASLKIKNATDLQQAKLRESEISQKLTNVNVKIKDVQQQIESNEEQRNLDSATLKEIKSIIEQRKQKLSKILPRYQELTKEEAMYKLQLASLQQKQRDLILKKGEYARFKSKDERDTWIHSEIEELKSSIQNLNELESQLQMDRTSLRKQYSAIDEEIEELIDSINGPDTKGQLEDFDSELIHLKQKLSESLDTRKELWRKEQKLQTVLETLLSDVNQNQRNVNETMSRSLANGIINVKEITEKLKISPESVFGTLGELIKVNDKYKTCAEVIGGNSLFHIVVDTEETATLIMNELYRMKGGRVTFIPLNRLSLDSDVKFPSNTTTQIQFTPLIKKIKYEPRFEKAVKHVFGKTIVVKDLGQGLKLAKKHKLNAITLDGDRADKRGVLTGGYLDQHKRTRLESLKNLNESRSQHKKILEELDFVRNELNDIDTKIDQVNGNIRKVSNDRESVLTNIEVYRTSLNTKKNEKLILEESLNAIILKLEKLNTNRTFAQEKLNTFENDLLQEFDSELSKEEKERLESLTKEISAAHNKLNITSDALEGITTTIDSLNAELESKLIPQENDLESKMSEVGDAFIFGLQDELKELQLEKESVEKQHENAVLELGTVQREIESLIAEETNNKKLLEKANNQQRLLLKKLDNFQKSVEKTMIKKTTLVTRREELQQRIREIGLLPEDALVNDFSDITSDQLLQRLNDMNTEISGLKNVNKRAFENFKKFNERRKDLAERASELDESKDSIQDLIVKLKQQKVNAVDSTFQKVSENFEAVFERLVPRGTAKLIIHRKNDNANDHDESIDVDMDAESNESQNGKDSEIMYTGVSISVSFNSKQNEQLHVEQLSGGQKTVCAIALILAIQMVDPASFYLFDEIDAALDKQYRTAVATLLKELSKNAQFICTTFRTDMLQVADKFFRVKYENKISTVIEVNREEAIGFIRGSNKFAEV

cross-linking efficiency (acetylated Smc3(K160C)): 37% | cross-linking efficiency (Smc3(K160C)): 7%
B1: Smc1(S161C)-HA6 (natural protein, S. cerevisiae, UniProt P32908 1-1225, looked up)
chain: MGRLVGLELSNFKSYRGVTKVGFGESNFTSIIGPNGSGKSNMMDAISFVLGVRSNHLRSNILKDLIYRGVLNDENSDDYDNEGAASSNPQSAYVKAFYQKGNKLVELMRIISRNGDTSYKIDGKTVSYKDYSIFLENENILIKAKNFLVFQGDVEQIAAQCPVELSRMFEEVSGSIQYKKEYEELKEKIEKLSKSATESIKNRRRIHGELKTYKEGINKNEEYRKQLDKKNELQKFQALWQLYHLEQQKEELTDKLSALNSEISSLKGKINNEMKSLQRSKSSFVKESAVISKQKSKLDYIFKDKEKLVSDLRLIKVPQQAAGKRISHIEKRIESLQKDLQRQKTYVERFETQLKVVTRSKEAFEEEIKQSARNYDKFKLNENDLKTYNCLHEKYLTEGGSILEEKIAVLNNDKREIQEELERFNKRADISKRRITEELSITGEKLDTQLNDLRVSLNEKNALHTERLHELKKLQSDIESANNQEYDLNFKLRETLVKIDDLSANQRETMKERKLRENIAMLKRFFPGVKGLVHDLCHPKKEKYGLAVSTILGKNFDSVIVENLTVAQECIAFLKKQRAGTASFIPLDTIETELPTLSLPDSQDYILSINAIDYEPEYEKAMQYVCGDSIICNTLNIAKDLKWKKGIRGKLVTIEGALIHKAGLMTGGISGDANNRWDKEEYQSLMSLKDKLLIQIDELSNGQRSNSIRAREVENSVSLLNSDIANLRTQVTQQKRSLDENRLEIKYHNDLIEKEIQPKITELKKKLDDLENTKDNLVKEKEALQNNIFKEFTSKIGFTIKEYENHSGELMRQQSKELQQLQKQILTVENKLQFETDRLSTTQRRYEKAQKDLENAQVEMKSLEEQEYAIEMKIGSIESKLEEHKNHLDELQKKFVTKQSELNSSEDILEDMNSNLQVLKRERDGIKEDIEKFDLERVTALKNCKISNINIPISSETTIDDLPISSTDNEAITISNSIDINYKGLPKKYKENNTDSARKELEQKIHEVEEILNELQPNARALERYDEAEGRFEVINNETEQLKAEEKKILNQFLKIKKKRKELFEKTFDYVSDHLDAIYRELTKNPNSNVELAGGNASLTIEDEDEPFNAGIKYHATPPLKRFKDMEYLSGGEKTVAALALLFAINSYQPSPFFVLDEVDAALDITNVQRIAAYIRRHRNPDLQFIVISLKNTMFEKSDALVGVYRQQQENSSKIITLDLSNYAE

From article doi:10.1101/495762 (bioRxiv, 2018)
